This is an account of results in patent US20200223906A1 (Adimab, published 2020).

In general, Kd refers to a measure of binding affinity in units of concentration. Low values mean tighter binding, high ones weaker binding.

The labels stand for the following.
B1: ADI-18933 (antibody, V domains shown)
VH: QVQLVESGAEVKKPGASVKVACTASGYAFTNYNIHWVRLAPGQGLEWMAIINPGSGGTDYSEKFQGRLTLTSDTSTSTVYMTLGSLRYEDTAFYYCARRGYPDSGSYPLDYWGQGTLVTVSS
VL: DIVMTQSPSSLSASLGDRVTITCRAGRSIATYLNWYQQKPGKAPKLLIYGASSLQSGVPSRFSGSGSGTHFTLTISSLQPEDFATYYCQQSYIRPITFGGGTKVEIK
notes: full-length IgG from yeast
B2: ADI-18909 (antibody, V domains shown)
VH: QVQLQESGPGLVKPSQTLSLTCTVSGRFLNSGDYYWSWIRQSPGKGLEWLGYIHHSGNTYYNPSLKSRLTISLDMSKNQFSLKLSSVTAADTAVYYCARDLGKPLWDGHYYYGVDVWGQGTTVTVSS
VL: DIVMTQSPGTLSLSPGERATLSCRTSQNVNSNYLAWYQHKPGQAPRLLIYGASSRVTGIPDRFSGSGSGTDFTLTITRVESEDFAVYYCQVYSSSPPITFGQGTKVEIK
notes: full-length IgG from yeast; also called Antibody Number 264; Ab # 264
B3: ADI-18897 (antibody, V domains shown)
VH: EVQLVESGGGLVQPGGSLRLSCAASGFTIGTYWMSWVRQAPGKGLEWVANIKPDGSEQYYGDSVKGRFTISRDNAKNSLYLQMHSLRAEDAAVFYCARDTPDVLRHLEWPPVGAFDIWGQGTTVTVSS
VL: EIVMTQSPDSLAVSLGERATINCKSSQSLFYSSTNQHYLAWYQQKPGQPPELLIYWASIRESGVPDRFSGSGSGTDFTLTISSLQAADVAVYYCQQYYSSPQTFGQGTKVEIK
notes: full-length IgG from yeast
B4: ADI-18941 (antibody, V domains shown)
VH: EVQLVESAAEVKKPGESLKISCKGSGYSFASHWIGWVRQMPGKGLELMGFIYPGDSDTRYNPSFQGQVTISADKSISTAYLQWTRLKASDTAMYYCGQAVAGGEYFHHWGQGTLVTVSS
VL: DIVMTQSPATLSVSPGERATLSCRASQSLGSDLAWYQQKPGQTPRLLIYDASTRATGIPARFSGSGSGTEFTLTISSLQSEDFAVYYCQHYNNWPRGFGQGTKVEIK
notes: full-length IgG from yeast
B5: ADI-18878 (antibody, V domains shown)
VH: QVQLQESGPRLVKPSQTLSLICDVSGGSIGSGDHYWSWIRQPPGKGLEWIGYIYYSGTTYYNPSLKSRVTISADTSKNQLSLKLSSVTAADTAIYFCARDGGYDHVWGTHRYFDKWGQGTLVTVSS
VL: EIVLTQSPGTLSLSPGERATLSCRASQSVSNSYLAWYQQKPGQAPRLLIYGVSTRATGIPDRFSGSGSGTDFTLTISRLEPEDFAMYHCQQYGASPWTFGQGTKVDIK
notes: full-length IgG from yeast; also called Antibody Number 235; Ab # 235
B6: ADI-18887 (antibody, V domains shown)
VH: QVQLVQSGAEVKRPGSSVKVSCKASGGTFSSYALSWVRQAPGQGLEWIGGIIPMHRVTNYAQKFRGRVTISADTSTSTAYLEVNSLRVEDTAMYYCARVFFGTCGGASCFPSDLWGQGTLVTVSS
VL: EIVLTQSPSFVSASVGDGVTITCRASQAISSYLAWYQQKPGQAPKLLIYAASTLQGGVPSRFSGSGSGTHFTLTISSLQPEDFATYYCQQLHSDFQTFGPGTKVEIK
notes: full-length IgG from yeast; also called Antibody Number 242; Ab # 242

The target in one assay is RSV F protein of subtype A (strain A2) on recombinant mKate-RSV virus (Respiratory syncytial virus subtype A …, UniProt P03420 26-574). Put plainly: cell-based or functional assay.
As to B1, the “Neut IC50 (µg/ml) subtype A” value was found to be 0.075 µg/mL.

Take B2: the “Neut IC50 (µg/ml) subtype A” value came out at 0.11 µg/mL.

For B3, the “Neut IC50 (µg/ml) subtype A” value came out at 0.288 µg/mL.

In the case of B4, the “Neut IC50 (µg/ml) subtype A” value is over 10 µg/mL.

Take B5: the “Neut IC50 (µg/ml) subtype A” value is over 10 µg/mL.

With B6, the “Neut IC50 (µg/ml) subtype A” value amounted to 1.11 µg/mL.

A further assay addresses RSV F protein of subtype B (18537) on recombinant mKate-RSV virus (Respiratory syncytial virus subtype B …, UniProt P13843 26-574). Put plainly: cell-based or functional assay.
As for B1, the “Neut IC50 (µg/ml) subtype B” value worked out at 0.137 µg/mL.

Consider B2, for which the “Neut IC50 (µg/ml) subtype B” value came out at 0.169 µg/mL.

Take B3: the “Neut IC50 (µg/ml) subtype B” value amounted to 0.762 µg/mL.

Turning to B4, the “Neut IC50 (µg/ml) subtype B” value is over 10 µg/mL.

Take B5: the “Neut IC50 (µg/ml) subtype B” value was 8.31 µg/mL.

Consider B6, for which the “Neut IC50 (µg/ml) subtype B” value was over 10 µg/mL.

Another assay has as its target T1, RSV F subtype A, furin-cleaved ectodomain stabilized in the postfusion conformation (F ΔFP) (Respiratory syncytial virus subtype A, UniProt P03420 26-109; P03420 147-524).
T1 construct: extracellular domain; Trimeric soluble antigen; also called Postfusion subtype A
The assay is described as follows: BLI, IgG on AHQ sensor, 100 nM antigen.
B1 came in with a Kd of 20 nM.

Regarding B4, binding was put at a Kd of 19.1 nM.

In the next assay the target is T2, RSV F subtype B, furin-cleaved ectodomain stabilized in the prefusion conformation (DS-Cav1) (Respiratory syncytial virus subtype B).
T2 construct: extracellular domain; Trimeric soluble antigen; also called Prefusion subtype B
Put plainly: BLI, IgG on AHQ sensor, 100 nM antigen. (In general: BLI is a label-free optical method that tracks binding on a fibre tip over time.)
As for B2, the Kd came out at 0.288 nM.

B3 had a dissociation constant (Kd) of 1.53 nM.

B5 gave a dissociation constant Kd of 5.82 nM.

For B6, the Kd was 12.2 nM.

A further assay addresses T3, RSV F subtype B, furin-cleaved ectodomain stabilized in the postfusion conformation (F ΔFP) (Respiratory syncytial virus subtype B).
T3 construct: extracellular domain; Trimeric soluble antigen; also called Postfusion subtype B
The assay is described as follows: BLI, IgG on AHQ sensor, 100 nM antigen.
With B1, binding was characterised by a dissociation constant (Kd) of 0.616 nM.

B2 yielded a Kd of 0.225 nM.

Molecule B3 registered a Kd of 0.185 nM.

In the case of B4, the affinity, expressed as Kd, was 0.645 nM.

B5: the dissociation constant (Kd) was 0.388 nM.

On to B6, for which binding was put at a Kd of 0.549 nM.
